Blank lines part the entries; values can stand above or below the molecule they belong to.
Key:
[1] = molecular target: Full-length MmRAD51D (yeast two-hybrid fusion) (mouse) (UniProt O55230); assay: two-hybrid
[2] = molecular target: T1, Full-length MmRAD51D (yeast two-hybrid fusion) (mouse, UniProt O55230 1-329); assay: two-hybrid
T1 sequence (looked up): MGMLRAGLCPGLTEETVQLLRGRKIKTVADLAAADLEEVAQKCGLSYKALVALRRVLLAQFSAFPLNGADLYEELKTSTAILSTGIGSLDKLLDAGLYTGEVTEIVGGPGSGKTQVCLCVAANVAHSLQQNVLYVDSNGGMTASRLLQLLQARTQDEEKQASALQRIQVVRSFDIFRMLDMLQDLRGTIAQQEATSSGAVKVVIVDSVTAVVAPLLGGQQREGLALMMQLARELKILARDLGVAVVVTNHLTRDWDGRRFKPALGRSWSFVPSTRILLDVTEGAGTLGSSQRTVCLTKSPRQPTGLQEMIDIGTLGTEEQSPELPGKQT

- fold decrease in the level of interaction against full-length RNF138 [1]: 8 fold
Molecule: MmRnf138-Δ5 (RNF138 splice variant with a deletion of exon 5, yeast two-hybrid fusion) (natural protein)

- fold decrease in the level of interaction against full-length RNF138 [1]: 3 fold
Molecule: MmRnf138-Δ7 (RNF138 splice variant with a deletion of exon 7, yeast two-hybrid fusion) (natural protein)

- β-galactosidase level relative to the DBD-RAD51D:AD-RAD51C positive control [2]: 79%
B1: RNF138 (yeast two-hybrid fusion) (natural protein, mouse, UniProt Q9CQE0-1 1-245, looked up)
chain: MSEELSAATSYTEDDFYCPVCQEVLKTPVRTAACQHVFCRKCFLTAMRESGIHCPLCRGSVTRRERACPERALDLENIMRRFSGSCRCCSKKIKFYRMRHHYKSCKKYQDEYGVSSVIPNFKISQDSVRSSNRSETSASDNTETYQEDTSSSGHPTFKCPLCQESNFTRQRLLDHCNSNHLFQIVPVTCPICVSLPWGDPSQITRNFVSHLNQRHQFDYGEFVNLQLDEETQYQTAVEESFQVNM
